Test results: patent US20110123544A1 (published 2011)

Legend:
[1] = target: T1, Cyno IL-12 (PBMC sup) (cynomolgus monkey); assay: cell-based or functional assay
T1 chain 1: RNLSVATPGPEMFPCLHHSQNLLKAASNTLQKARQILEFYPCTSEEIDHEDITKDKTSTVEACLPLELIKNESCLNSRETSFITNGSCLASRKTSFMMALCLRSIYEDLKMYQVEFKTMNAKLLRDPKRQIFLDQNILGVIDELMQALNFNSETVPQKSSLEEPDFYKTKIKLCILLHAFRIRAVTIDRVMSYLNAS
T1 chain 2: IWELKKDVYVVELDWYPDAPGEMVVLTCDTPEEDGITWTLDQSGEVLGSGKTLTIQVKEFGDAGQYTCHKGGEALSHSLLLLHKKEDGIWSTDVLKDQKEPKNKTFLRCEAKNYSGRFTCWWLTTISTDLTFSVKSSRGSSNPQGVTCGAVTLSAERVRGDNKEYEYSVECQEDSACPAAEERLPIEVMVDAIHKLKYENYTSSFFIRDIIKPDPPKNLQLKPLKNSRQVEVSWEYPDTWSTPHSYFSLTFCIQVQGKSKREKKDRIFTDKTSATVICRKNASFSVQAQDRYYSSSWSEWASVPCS

[2] = target: T2, Baboon IL-12 (PBMC sup) (baboon); assay: cell-based or functional assay
T2 chain 1: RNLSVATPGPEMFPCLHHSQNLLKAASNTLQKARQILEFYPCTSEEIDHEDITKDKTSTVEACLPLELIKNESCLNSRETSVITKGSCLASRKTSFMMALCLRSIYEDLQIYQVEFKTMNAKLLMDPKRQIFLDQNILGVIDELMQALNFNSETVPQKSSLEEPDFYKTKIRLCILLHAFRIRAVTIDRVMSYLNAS
T2 chain 2: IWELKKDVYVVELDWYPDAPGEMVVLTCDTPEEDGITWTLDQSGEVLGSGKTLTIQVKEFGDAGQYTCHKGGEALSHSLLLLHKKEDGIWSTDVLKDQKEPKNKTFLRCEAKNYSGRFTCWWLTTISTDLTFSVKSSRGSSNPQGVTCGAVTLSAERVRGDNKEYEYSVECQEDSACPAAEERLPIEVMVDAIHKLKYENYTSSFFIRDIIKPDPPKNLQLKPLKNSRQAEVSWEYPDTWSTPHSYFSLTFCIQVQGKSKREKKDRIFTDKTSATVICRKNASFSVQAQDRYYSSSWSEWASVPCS

[3] = target: recombinant rhesus IL-12 (rhesus monkey) (UniProt P48091); assay: cell-based or functional assay
[4] = target: recombinant human IL-12 (rhIL-12) (human) (UniProt P29459); assay: cell-based or functional assay
[5] = target: recombinant murine IL-12 (mouse) (UniProt P43431); assay: Biomolecular Interaction Assay; C17.15 captured on goat anti-rat IgG, soluble recombinant murine IL-12
[6] = target: recombinant murine IL-12 (mouse) (UniProt P43431); assay: Receptor Binding Assay: inhibition of 125I-murine IL-12 binding to receptors on 2D6 cells
[7] = target: recombinant murine IL-12 (mouse) (UniProt P43431); assay: cell-based or functional assay
[8] = target: human IL-12 (recombinant human IL-12, p70 heterodimer of p35 and p40) (human) (UniProt P29459); assay: BIAcore SPR, IL-12 chip
[9] = target: T3, recombinant human IL-12 (rhIL-12) (human, UniProt P29459 23-219; P29460 23-328); assay: cell-based or functional assay
T3 sequence (looked up) 1: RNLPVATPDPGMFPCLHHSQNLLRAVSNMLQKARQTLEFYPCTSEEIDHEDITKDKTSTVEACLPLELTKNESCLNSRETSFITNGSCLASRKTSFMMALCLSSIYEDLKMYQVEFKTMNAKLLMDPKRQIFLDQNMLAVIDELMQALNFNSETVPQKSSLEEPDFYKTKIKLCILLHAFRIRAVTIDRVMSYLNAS
T3 sequence (looked up) 2: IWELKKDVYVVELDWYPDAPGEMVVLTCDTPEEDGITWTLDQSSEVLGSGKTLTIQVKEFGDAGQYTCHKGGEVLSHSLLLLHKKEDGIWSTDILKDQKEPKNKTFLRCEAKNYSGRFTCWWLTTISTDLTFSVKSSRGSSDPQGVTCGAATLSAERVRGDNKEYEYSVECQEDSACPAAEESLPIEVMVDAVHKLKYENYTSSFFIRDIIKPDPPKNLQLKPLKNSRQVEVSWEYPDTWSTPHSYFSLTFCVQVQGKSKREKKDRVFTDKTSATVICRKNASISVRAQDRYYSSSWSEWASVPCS

[10] = target: human IL-12 (recombinant human IL-12, p70 heterodimer of p35 and p40) (human) (UniProt P29459); assay: cell-based or functional assay
[11] = target: human IL-12 (recombinant human IL-12, p70 heterodimer of p35 and p40) (human) (UniProt P29459); assay: RB assay: 125I-hIL-12 binding to PHA blasts
[12] = target: T4, recombinant human interleukin 12 (p40/p35 heterodimer) (human, UniProt P29460 23-328; P29459 23-219); assay: BIAcore; unmutated
T4 chain 1: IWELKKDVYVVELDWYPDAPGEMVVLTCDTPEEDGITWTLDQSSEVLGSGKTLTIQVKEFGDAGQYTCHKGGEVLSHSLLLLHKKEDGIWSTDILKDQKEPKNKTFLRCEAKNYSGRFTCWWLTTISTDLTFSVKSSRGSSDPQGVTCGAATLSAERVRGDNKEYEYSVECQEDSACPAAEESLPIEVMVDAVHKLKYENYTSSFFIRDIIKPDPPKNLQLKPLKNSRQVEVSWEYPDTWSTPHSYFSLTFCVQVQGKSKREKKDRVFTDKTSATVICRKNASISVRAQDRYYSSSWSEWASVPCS
T4 chain 2: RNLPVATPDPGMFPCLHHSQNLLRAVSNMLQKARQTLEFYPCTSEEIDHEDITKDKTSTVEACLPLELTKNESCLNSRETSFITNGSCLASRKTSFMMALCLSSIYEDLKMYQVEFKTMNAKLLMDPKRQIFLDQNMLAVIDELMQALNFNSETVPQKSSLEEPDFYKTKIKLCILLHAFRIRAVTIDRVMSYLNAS

[13] = target: T3, recombinant human IL-12 (rhIL-12); assay: RB assay: inhibition of 125I-hIL-12 binding to IL-12 receptors on PHA blasts
Description: PHA blast cells isolated as described above, were washed once and resuspended in binding buffer to a cell density of 2×10⁷ cells/ml. […] The cell pellet was examined for cell bound radioactivity using a gamma counter. […] Incubations were carried out in duplicate.

[14] = target: T3, recombinant human IL-12 (rhIL-12); assay: BIAcore (SPR) off-rate on IL-12 chip
Excerpt: The system utilizes the optical properties of SPR to detect alterations in protein concentrations within a dextran biosensor matrix. Proteins are covalently bound to the dextran matrix at known concentrations. […] To determine the off rate (koff), on rate (kₒₙ), association rate (Ka) and dissociation rate (Kd) constants, BIAcore kinetic evaluation software (version 2.1) was used.

[15] = target: T3, recombinant human IL-12 (rhIL-12); assay: cell-based or functional assay; remark: listed apart in the source

Chain of recombinant murine IL-12 (mouse) (P43431 23-215, chain 1 of 2): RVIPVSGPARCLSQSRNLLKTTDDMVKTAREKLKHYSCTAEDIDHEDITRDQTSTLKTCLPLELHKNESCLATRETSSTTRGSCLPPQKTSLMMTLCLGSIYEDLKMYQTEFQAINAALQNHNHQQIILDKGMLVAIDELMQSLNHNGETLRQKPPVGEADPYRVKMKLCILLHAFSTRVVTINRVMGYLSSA
Chain of recombinant murine IL-12 (mouse) (P43432 23-335, chain 2 of 2, further chain): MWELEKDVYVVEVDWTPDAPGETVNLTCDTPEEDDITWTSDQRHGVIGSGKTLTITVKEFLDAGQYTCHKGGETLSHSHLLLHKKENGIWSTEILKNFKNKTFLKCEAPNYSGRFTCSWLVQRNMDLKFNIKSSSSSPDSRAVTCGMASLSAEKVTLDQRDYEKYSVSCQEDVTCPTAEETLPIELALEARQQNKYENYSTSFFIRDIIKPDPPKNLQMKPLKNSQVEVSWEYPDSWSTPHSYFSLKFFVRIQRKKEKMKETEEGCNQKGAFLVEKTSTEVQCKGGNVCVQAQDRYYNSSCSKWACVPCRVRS

C8.6.2, mouse anti-human IL-12 monoclonal antibody
IC50 (M), Cyno IL-12 PBMC sup [1]: 1.2e-10 M
IC50 (M), Baboon IL-12 PBMC sup [2]: 2e-10 M
IC50 (M), Rhesus IL-12 Purified [3]: 1e-10 M
IC50 (M), Human IL-12 Purified [4]: 5e-11 M

C17.15, rat anti-murine IL-12 monoclonal antibody
Kd [5]: 0.48 nM
koff [5]: 0.000184 s⁻¹
kon [5]: 380000 M⁻¹ s⁻¹
IC50 [6]: 0.15 nM
IC50 (M), Mouse IL-12 Purified [7]: 3e-11 M
PHA blast Assay IC50 [7]: 0.014 nM

B1: Y61 IgG (antibody, V domains shown)
VH: QVQLVQSGGGVVQPGRSLRLSCAASGFTFSSYGMHWVRQAPGKGLEWVAFIRYDGSNKYYADSVKGRFTISRDNSKNTLYLQMKSLRAEDTAVYYCKTHGSHDNWGQGTMVTVSS
VL: SYVLTQPPSVSGTPGQRVTISCSGGRSWIGSNTVKWYQQLPGTAPKLLIYGNDQRPSGVPDRFSGSKSGTSASLAITGVQAEDEADYYCQSYDRGTHPALLFGTGTKVTVLG
IC50 (M), Cyno IL-12 PBMC sup [1]: 2.2e-10 M
IC50 (M), Rhesus IL-12 Purified [3]: 1e-10 M

B2: 149-7 (scFv, V domains shown)
VH: QVQLVQSGGGVVQPGRSLRLSCAASGFTFSSYGMHWVRQAPGKGLEWVAFIRYDGSNKYYADSVKGRFTISRDNSKNTLYLQMKSLRAEDTAVYYCTTHGSHDNWGQGTMVTVSS
VL: SYVLTQPPSVSGTPGQRVTISCSGGRSNIGSNTVKWYQQLPGTAPKLLIYGNDQRPSGVPDRFSGSKSGTSASLAITGVQAEDEADYYCQSYDRDFTGSRVFGTGTKVTVL
koff [8]: 0.00113 s⁻¹
PHA assay IC50 (M) p70:p40 1:0 [9]: 3.5e-09 M
PHA assay IC50 (M) p70:p40 1:20 [9]: 2.5e-09 M
PHA assay IC50 (M) p70:p40 1:50 [9]: 4e-09 M
PHA assay IC50 [10]: 3 nM
IC50 [11]: 0.9 nM

FIRYDGSNKYYADSVKG [Y61 H58 Y]
koff [12]: 0.00031 s⁻¹

FIRYDGSNKYYADSVKG [Y61 H56 N]
koff [12]: 0.000385 s⁻¹

B3: Y61 (scFv, V domains shown)
VH: QVQLVQSGGGVVQPGRSLRLSCAASGFTFSSYGMHWVRQAPGKGLEWVAFIRYDGSNKYYADSVKGRFTISRDNSKNTLYLQMKSLRAEDTAVYYCKTHGSHDNWGQGTMVTVSS
VL: SYVLTQPPSVSGTPGQRVTISCSGGRSWIGSNTVKWYQQLPGTAPKLLIYGNDQRPSGVPDRFSGSKSGTSASLAITGVQAEDEADYYCQSYDRGTHPALLFGTGTKVTVLG
notes: scFv; also called Y61 scFv
IC50 [13]: 0.04 nM
koff [14]: 0.000275 s⁻¹
PHA assay IC50 [15]: 0.14 nM
